System: T1, His-Tag-FGG (recombinant human fibrinogen gamma chain with N-terminal His-tag, produced in E. coli)
T1 sequence: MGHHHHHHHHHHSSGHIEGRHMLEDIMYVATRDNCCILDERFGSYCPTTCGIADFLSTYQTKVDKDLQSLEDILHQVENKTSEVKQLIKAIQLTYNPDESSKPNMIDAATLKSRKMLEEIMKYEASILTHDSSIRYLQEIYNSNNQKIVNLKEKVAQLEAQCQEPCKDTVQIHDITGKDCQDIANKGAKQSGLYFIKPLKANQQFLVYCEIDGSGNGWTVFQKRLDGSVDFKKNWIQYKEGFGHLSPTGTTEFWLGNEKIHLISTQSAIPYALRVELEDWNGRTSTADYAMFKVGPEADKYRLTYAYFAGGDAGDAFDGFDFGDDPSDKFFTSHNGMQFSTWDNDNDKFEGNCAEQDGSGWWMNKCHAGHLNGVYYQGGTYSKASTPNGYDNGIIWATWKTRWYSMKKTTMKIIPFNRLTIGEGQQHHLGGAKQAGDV

In the case of factor XIII, the “SDS-PAGE analysis of polymerization (crosslinking) of FGG with factor XIII” value is reported as “recombinant FGG can be crosslinked by factor XIII and produces dimers (about 100 kDa) and higher molecular weight FGG structures”.
